Values joined by “and” are separate entries in the source; they are usually repeats but may differ in a detail not shown here. Equal values may be shown once.
Experiments:
plasma PEPD = assay: Plasma PEPD concentration in mice by ELISA; assay type: in vivo, mouse; conditions: for average plasma level of total PEPD (hPEPD plus mPEPD), increase: hPEPD 10 mg/kg i.p., vs control
Procedure: Animal studies. All animal studies were performed in accordance with protocols approved by the Institutional Animal Care and Use Committee at Roswell Park Cancer Institute. Male mice at 7-8 weeks of age were used, including wild type (WT) mice (C57BL/6), and mice deficient in FXII (C57BL/6-FXII^−/−) or FVII (C57BL/6-FVII^tTA/tTA). WT C57BL/6 mice were purchased from Taconic. C57BL/6-FXII^−/− mice and C57BL/6-FVII^tTA/tTA mice were bred in our own facility and genotyped. The breeders were kindly provided by Dr. Francis J. Castellino at University of Notre Dame. […] CCl4 was dissolved in corn oil, whereas all other substances were dissolved in PBS. The vehicle or the test substance was given to mice in 0.1 ml volume per 20 g body weight. Blood was collected from the mice at specific times by cardiac puncture at the time of sacrifice by carbon dioxide, and heart, liver and kidney were also collected from some of the mice. Blood was collected into K3 EDTA-containing tubes (Multivette 600 from Sarstedt), unless specified otherwise. All blood samples were promptly centrifuged to obtain plasma samples.
Measurement of plasma levels of PEPD, SRC, Aβ1-42 and FI. […] The plates were washed three times with phosphate buffered saline tween-20 (PBST) and the coated wells were blocked by incubation with 200 μl/well of 1% BSA in PBS for at least 2 h at RT. After another round of wash with PBST, the plates were incubated with appropriately diluted Aβ1-42 standard, SRC standard or plasma samples (100 μl/well) for 2 h at RT. The plates were then washed with PBST and incubated with an anti-Aβ1-42 rabbit polyclonal antibody (sc-9129) or anti-SRC rabbit monoclonal antibody (2123) at 100 μl/well for 2 h at RT. The plates were washed again with PBST, and each well was incubated with a goat anti-rabbit IgG-HRP conjugate (100 μl) for 1 h at RT. After yet another round of wash with PBST, each well was incubated with 100 μl of HRP substrate 3,3′,5,5′-tetramethylbenzedine (Cell Signaling, 7004). Upon adequate color development, 100 μl of stop solution (Cell Signaling, 7002) was added to each well, and absorbance at 450 nm was promptly recorded by a microtiter plate reader. Plasma FI concentration was determined using an assay kit (400-374-130050) from GenWay Biotech, following the manufacturer's instruction.

FVII = target: T1, FVII (Homo sapiens, UniProt P08709); assay: hPEPD degradation by FVII with or without TF and/or FIIa; assay type: biochemical; conditions: 24 h
T1 construct: purchased Haematologic Technologies HCVII-0030
T1 sequence (P08709 61-466): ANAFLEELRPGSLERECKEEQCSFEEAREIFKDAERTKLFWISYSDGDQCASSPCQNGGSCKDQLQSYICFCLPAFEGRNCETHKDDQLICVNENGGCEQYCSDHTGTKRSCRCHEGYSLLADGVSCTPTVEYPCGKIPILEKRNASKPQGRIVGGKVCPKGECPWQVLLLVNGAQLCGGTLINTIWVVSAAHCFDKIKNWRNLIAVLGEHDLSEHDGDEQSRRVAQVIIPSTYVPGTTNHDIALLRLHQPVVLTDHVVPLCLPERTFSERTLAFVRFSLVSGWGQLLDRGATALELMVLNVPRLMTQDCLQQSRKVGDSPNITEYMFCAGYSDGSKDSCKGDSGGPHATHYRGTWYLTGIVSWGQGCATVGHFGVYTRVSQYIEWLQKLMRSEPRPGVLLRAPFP
Procedure: Measurement of in vitro degradation of hPEPD, mSRC and hAβ1-42. To determine whether a blood coagulation factor degrades hPEPD, hPEPD at 90 nM or lower concentrations (10 or 40 nM) was incubated with solvent, 100 nM FIIa, 100 nM FXa, 10 nM FVIIa with or without 10 nM TF, or 10 nM FVII with or without 10 nM TF and/or 100 nM FIIa in PBS in a total volume of 100 μl containing 5 mM CaCl2 for desired times at RT. […] To compare the hPEPD-degrading activities of different plasma samples, 9.2 pmol of hPEPD was incubated with 100 μl of plasma from WT mice or FVII^tTA/tTA mice at RT, with or without FIIa or FXa (10 pmol), and to maximize detection of any activity, all incubations lasted for 24 h. […] To measure remaining hPEPD, the incubated samples were cleared of potential fibrin clots by centrifugation and then analyzed by SDS-PAGE and silver staining (using the LC 6070 kit from Invitrogen), IB or measurement of hPEPD enzymatic activity. hPEPD enzymatic activity was measured using glycyl-proline as a substrate (as described in Zbucka et al., Folia Histochem Cytobiol 2007; 45 Suppl 1: S181-185). The precipitates from each incubated sample were washed with PBS twice and then resuspended in 2.5% SDS (20 μper sample); each solution was mixed with 10 μl loading dye and analyzed for hPEPD by IB, using pure hPEPD as a standard and factor FXIIIa as a binding control, respectively.

[1] = hPEPD-degrading activity of mouse plasma samples; assay type: in vitro ADME
Procedure: Measurement of in vitro degradation of hPEPD, mSRC and hAβ1-42. To determine whether a blood coagulation factor degrades hPEPD, hPEPD at 90 nM or lower concentrations (10 or 40 nM) was incubated with solvent, 100 nM FIIa, 100 nM FXa, 10 nM FVIIa with or without 10 nM TF, or 10 nM FVII with or without 10 nM TF and/or 100 nM FIIa in PBS in a total volume of 100 μl containing 5 mM CaCl2 for desired times at RT. […] To compare the hPEPD-degrading activities of different plasma samples, 9.2 pmol of hPEPD was incubated with 100 μl of plasma from WT mice or FVII^tTA/tTA mice at RT, with or without FIIa or FXa (10 pmol), and to maximize detection of any activity, all incubations lasted for 24 h. […] Although some clotting activity may take place before and during centrifugation of the blood sample, our experiments indicate that activation of coagulation factors, e.g., FVII, is very limited (see FIG. 5A). To measure remaining hPEPD, the incubated samples were cleared of potential fibrin clots by centrifugation and then analyzed by SDS-PAGE and silver staining (using the LC 6070 kit from Invitrogen), IB or measurement of hPEPD enzymatic activity. hPEPD enzymatic activity was measured using glycyl-proline as a substrate (as described in Zbucka et al., Folia Histochem Cytobiol 2007; 45 Suppl 1: S181-185). The precipitates from each incubated sample were washed with PBS twice and then resuspended in 2.5% SDS (20 μper sample); each solution was mixed with 10 μl loading dye and analyzed for hPEPD by IB, using pure hPEPD as a standard and factor FXIIIa as a binding control, respectively.
To measure degradation of hPEPD in plasma samples with or without removal of FVII and FVIIa, plasma samples from WT mice as described above were either used directly or immunodepleted of FVII and FVIIa before use. To remove FVII and FVIIa from plasma, 500 μl plasma was incubated with an antibody specific for FVII/FVIIa (GTX79785; 10 μg) and protein A sepharose beads for 1 h at RT. Following centrifugation at 13,000×g for 1 min at 4° C., the supernatant fraction was collected and analyzed by IB to confirm depletion of FVII and FVIIa. Next, 9.2 pmol of hPEPD was incubated with 100 μl of regular plasma or the plasma depleted of FVII/FVIIa, with or without FIIa (10 pmol) for 24 h at RT. Potential fibrin clots formed during the incubation was removed by centrifugation at the end of the incubation, and remaining hPEPD was measured by hPEPD enzymatic activity analysis.

FXII = assay: Binding to coagulation factor FXII (IP and IB); design: species or system human; conditions: 40 nM (hAβ1-42 200 nM) with FXII in PBS, 2 h
Procedure: Binding reactions were carried out in PBS in a total volume of 100 μl for 2 h at 37° C. To assess binding of hPEPD to HMWK, PK, FXI, FXII or a FXII mutant, hPEPD at 40 nM was incubated with a potential binding partner at 0.5 μM. All FXII mutants are His tagged, while FXII is either 6XHis-tagged (generated in our own laboratory) or not His-tagged (purchased commercially), depending on the experiment. To compare hPEPD and its mutants for binding to FXII, hPEPD or a mutant (40 nM) was incubated with FXII at 0.5 μM. Likewise, to assess binding of mSRC to FXII and its mutants, mSRC (40 nM) was incubated with FXII or a mutant at 0.5 μM. At the end of the incubation, 300 μl PBS containing a specific primary antibody was added to the incubation solution, which was further incubated at 4° C. overnight, followed by IP by protein G-agarose, and the precipitates were analyzed by IB. […] The precipitates were re-dissolved in 30 μl of 2% SDS, which were analyzed along with the supernatants by IB.

hPEPD degradation by FVII with or without TF after adding FIIa (FVII; FIIa 100 nM): caused marked hPEPD degradation
binding to FXII (FXII): binds only to FXII
B1: hPEPD: recombinant human prolidase (PEPD), 6xHis tagged to the carboxy terminus (protein, UniProt P12955 2-493, looked up)
Xaa-Pro dipeptidase: AAATGPSFWLGNETLKVPLALFALNRQRLCERLRKNPAVQAGSIVVLQGGEETQRYCTDTGVLFRQESFFHWAFGVTEPGCYGVIDVDTGKSTLFVPRLPASHATWMGKIHSKEHFKEKYAVDDVQYVDEIASVLTSQKPSVLLTLRGVNTDSGSVCREASFDGISKFEVNNTILHPEIVECRVFKTDMELEVLRYTNKISSEAHREVMKAVKVGMKEYELESLFEHYCYSRGGMRHSSYTCICGSGENSAVLHYGHAGAPNDRTIQNGDMCLFDMGGEYYCFASDITCSFPANGKFTADQKAVYEAVLRSSRAVMGAMKPGVWWPDMHRLADRIHLEELAHMGILSGSVDAMVQAHLGAVFMPHGLGHFLGIDVHDVGGYPEGVERIDEPGLRSLRTARHLQPGMVLTVEPGIYFIDHLLDEALADPARASFLNREVLQRFRGFGGVRIEEDVVVTDSGIELLTCVPRTVEEIEACMAGCDKAFTPFSGPK
modifications: C-terminal 6xHis tag
notes: recombinant human prolidase (PEPD), 6xHis tagged to the carboxy terminus
plasma level of total PEPD, increase (plasma PEPD; FVII tTA/tTA mice, hPEPD 0.2 mg/kg i.p., 6 h): 12.0 fold
plasma level of total PEPD, increase (plasma PEPD; FXII−/− mice, hPEPD 0.2 mg/kg i.p., 6 h, no EP): 12.5 fold
plasma level of total PEPD, increase (plasma PEPD; FXII−/− mice, hPEPD 4 mg/kg i.p., 24 h): 134.6 fold
average plasma level of total PEPD, of control (plasma PEPD; WT mice, hPEPD 0.2 mg/kg i.p., 1 h): 51%
plasma level of total PEPD, decrease (plasma PEPD; WT mice, hPEPD 0.2 mg/kg i.p., 6 h, no EP): 66% and 56.3%
average plasma level of total PEPD, of control (plasma PEPD; WT mice, hPEPD 0.2 mg/kg i.p., 24 h): 46%
plasma level of total PEPD, increase (plasma PEPD; WT mice, hPEPD 4 mg/kg i.p., 24 h): 3.3 fold
average plasma level of total PEPD (hPEPD plus mPEPD), increase (plasma PEPD; WT mice, 1 h): 19.4 fold
average plasma level of total PEPD (hPEPD plus mPEPD), increase (plasma PEPD; WT mice, 24 h): 15.1 fold
plasma level of total PEPD, difference between FVII tTA/tTA and WT mice (plasma PEPD; hPEPD 0.2 mg/kg i.p., 6 h): 68.9 fold
average plasma level of total PEPD, higher in FXII−/− mice than in WT mice (plasma PEPD; hPEPD 0.2 mg/kg i.p., 6 h, no EP): 53.8 fold
proteolysis of hPEPD by FVII with or without TF (FVII; FVII 10 nM, TF 10 nM): showed no proteolytic activity towards hPEPD
hPEPD degradation in plasma after adding human FIIa or FXa ([1]; FVII tTA/tTA plasma): neither factor was effective
hPEPD degradation after incubation with plasma ([1]; FVII tTA/tTA plasma, 24 h, RT): no degradation of hPEPD could be detected
hPEPD degradation in plasma after adding human FIIa or FXa ([1]; WT plasma): markedly enhanced hPEPD degradation
hPEPD remained after incubation with plasma ([1]; WT plasma, 24 h, RT): 88.8%
hPEPD degradation in plasma after removal of FVII/FVIIa by immunodepletion ([1]; WT plasma, with or without FIIa): abolished the residual hPEPD degradation or FIIa-enabled hPEPD degradation

From patent US20180188270A1, “DIAGNOSTIC TEST FOR ALZHEIMER'S DISEASE BASED ON IDENTIFICATION OF A PROTEOLYTIC PATHWAY” (Health Research, Inc., priority 2015, published 2018)
